Laboratory results published in US20170253656A1 (SUTRO BIOPHARMA, published 2017).
Residue numbers refer to the chain shown, from its start.

T1: hu-CD74 antigen (R&D SYSTEMS catalog #3590-CD-050) (human, UniProt P04233-2 73-232, limits assumed)
T1 construct: Bought antigen; also called rhCD74; human CD74
T1 sequence (looked up): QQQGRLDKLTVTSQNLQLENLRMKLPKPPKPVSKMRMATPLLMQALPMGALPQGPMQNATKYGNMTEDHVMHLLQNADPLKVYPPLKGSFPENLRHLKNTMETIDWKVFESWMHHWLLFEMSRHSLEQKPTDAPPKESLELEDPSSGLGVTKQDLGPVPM

B1: 1337-A09 light chain paired with VH 1251-A06 (SEQ ID NO: 236) (Fab, V domains shown)
VH: QVQLVESGGGVVQPGRSLRLSCAASGFDFSSYGMHWVRQAPDKGLEWVAVIWDDGSDRYYADSVKGRFTISRDNSKNTLYLQMNSLRAEDTAVYYCARGGTRVLGAIHGTDVWGQGTTVTVSS
VL: DIQMTQSPSSLSASVGDRVTITCRASQGIGSWLAWYQQKPEKAPKSLIYAADRLQSGVPSRFSGSGSGTDFTLTISSLQPEDFATYYCQQYHTYPLTFGGGTKVEIK
notes: 'in Fab format'
B2: 1337-A06 light chain paired with VH 1251-A06 (SEQ ID NO: 236) (Fab, V domains shown)
VH: B1 VH
VL: B1 VL with G28D, L33V, A50G, H92N, T93S
notes: 'in Fab format'
B3: 1337-A04 light chain paired with VH 1251-A06 (SEQ ID NO: 236) (Fab, V domains shown)
VH: B1 VH
VL: B1 VL with G28D, S31R, L33V, A50G, D52S, R53S, H92N
notes: 'in Fab format'
B4: 1337-A05 light chain paired with VH 1251-A06 (SEQ ID NO: 236) (Fab, V domains shown)
VH: B1 VH
VL: B1 VL with S31R, L33V, A50G, H92N, T93S
notes: 'in Fab format'
B5: 1337-A08 light chain paired with VH 1251-A06 (SEQ ID NO: 236) (Fab, V domains shown)
VH: B1 VH
VL: B1 VL with G28D, L33V, A51S, R53S, H92N, T93S
notes: 'in Fab format'
B6: 1337-A07 light chain paired with VH 1251-A06 (SEQ ID NO: 236) (Fab, V domains shown)
VH: B1 VH
VL: B1 VL with G30S, L33V, A50G, D52S
notes: 'in Fab format'
B7: 1337-A10 light chain paired with VH 1251-A06 (SEQ ID NO: 236) (Fab, V domains shown)
VH: B1 VH
VL: B1 VL with G30S, L33V, A50G, A51S, D52S, H92N
notes: 'in Fab format'
B8: 1193-E06b (scFv)
scFv: EVQLLESGGGLVQPGGSLRLSCAASGFTFNNTDMSWVRQAPGKGLEWVGIINGSGGATNYADSVKGRFTISRDNSKNTLYLQMNSLRAEDTAVYYCAKFENEWEVSMDYWGQGTLVTVSSGGGGSGGGGSGGGGSEIVLTQSPGTLSLSPGERATLSCRASQSVSSSYLAWYQQKPGQAPRLLIYGASSRATGIPDRFSGSGSGTDFTLTISRLEPEDFAVYYCQQHYTTPPTFGQGTKVEIK
notes: Called scFv clone
B9: 1193-C08 (scFv)
scFv: EVQLLESGGGLVQPGGSLRLSCAASGFTFNNNWMSWVRQAPGKGLEWVGIINGDDGYTYYADRVKGRFTIIRDNSKNTLYLQMNSLRAEDTAVYYCAKVALGRPRRFDYWGQGTLVTVSSGGGGSGGGGSGGGGSEIVLTQSPGTLSLTPGERATLSCRASQSVSSNYLAWYQQKPGQAPRLLIYGASSRATGIPDRFSGSGSGTDFTLTISRLEPEDFAMYYCQQHYTTPPTFGQGTKVEIK
notes: Called scFv clone
B10: 1275-G02 light chain paired with HC 1251-F07 (SEQ ID NO: 311) (antibody, human IgG1, V domains shown)
VH: B1 VH with D28T, Y32H, D57N, R58E, Y59V, V103I, L104R, A106L, I107R, H108Y
VL: B1 VL with I29L, W32F, A50L, A51G, D52N, R53L, S56I, H92N, T93A
B11: 1275-C10 light chain paired with HC 1251-A06 (SEQ ID NO: 310) (antibody)
heavy: not shown
VL: B1 VL with I29V, G30S, A50S, D52R, R53Y, H92N, T93L
B12: 1251-C03 heavy chain paired with VL SEQ ID NO: 272 (antibody, V domains shown)
VH: QVQLVESGGGVVQPGRSLRLSCAASGFNFSSYGMHWVRQAPDKGLEWVAVIWYDGSIKNYADSVKGRFTISRDNSKNTLYLQMNSLRAEDTAVYYCARGGALMRGEFSGHDVWGQGTTVTVSS
VL: B1 VL with G30S, D52S, R53S, H92N, T93S
B13: 1251-F06 heavy chain paired with VL SEQ ID NO: 272 (antibody, V domains shown)
VH: QVQLVESGGGVVQPGRSLRLSCAASGFTFSSFGMHWVRQAPDKGLEWVAVIWYDGSNEYYADSVKGRFTISRDNSKNTLYLQMNSLRAEDTAVYYCARGGSLVTRGVYGLDVWGQGTTVTVSS
VL: B1 VL with G30S, D52S, R53S, H92N, T93S
B14: 1251-E06 heavy chain paired with VL SEQ ID NO: 272 (antibody, V domains shown)
VH: QVQLVESGGGVVQPGRSLRLSCAASGFTFDSYGMHWVRQAPDKGLEWVAVIWYDGSNKVYADSVKGRFTISRDNSKNTLYLQMNSLRAEDTAVYYCARGGMVGQGAMFGLDVWGQGTTVTVSS
VL: B1 VL with G30S, D52S, R53S, H92N, T93S
B15: 1251-A03 heavy chain paired with VL SEQ ID NO: 272 (antibody, V domains shown)
VH: QVQLVESGGGVVQPGRSLRLSCAASGFAFSDHGMHWVRQAPDKGLEWVAVIWYDGSHKIYADSVKGRFTISRDNSKNTLYLQMNSLRAEDTAVYYCARGGSLAGGAVYGTDVWGQGTTVTVSS
VL: B1 VL with G30S, D52S, R53S, H92N, T93S
B16: 1251-A02 heavy chain paired with VL SEQ ID NO: 272 (antibody, V domains shown)
VH: B15 VH
VL: B1 VL with G30S, D52S, R53S, H92N, T93S
notes: Selected from a Fab library; VH3-33 / Vk1-12
B17: 1251-A06 heavy chain paired with VL SEQ ID NO: 272 (antibody, V domains shown)
VH: B1 VH
VL: B1 VL with G30S, D52S, R53S, H92N, T93S
B18: 1251-D06 heavy chain paired with VL SEQ ID NO: 272 (antibody, V domains shown)
VH: QVQLVESGGGVVQPGRSLRLSCAASGFSFGSYGMHWVRQAPDKGLEWVAVVWYDGSKTIYADSVKGRFTISRDNSKNTLYLQMNSLRAEDTAVYYCARGGTLVRGAVYGLDVWGQGTTVTVSS
VL: B1 VL with G30S, D52S, R53S, H92N, T93S
B19: 1275-D01 light chain paired with HC 1251-A06 (SEQ ID NO: 310) (antibody, human IgG1, V domains shown)
VH: B1 VH
VL: B1 VL with S31R, A50G, A51R, D52S, R53S, H92N, T93I
B20: 1251-D09 heavy chain paired with VL SEQ ID NO: 272 (antibody, V domains shown)
VH: B1 VH with D28S, D53Y, G55A, D57I, Y59K, D62G, R102V, V103E, L104R, H108Y
VL: B1 VL with G30S, D52S, R53S, H92N, T93S
B21: 1251-B08 heavy chain paired with VL SEQ ID NO: 272 (antibody, V domains shown)
VH: B15 VH with A28N, H32Y, H57I, K58S, I59Y, S101T, L102V, A103E, G104H, T117A
VL: B1 VL with G30S, D52S, R53S, H92N, T93S
B22: 1275-D10 light chain paired with HC 1251-A06 (SEQ ID NO: 310) (antibody, human IgG1, V domains shown)
VH: B1 VH
VL: B1 VL with I29V, G30F, A50N, D52T, R53Q, H92Y, T93Y
B23: 1251-F07 heavy chain paired with VL SEQ ID NO: 272 (antibody, V domains shown)
VH: B1 VH with D28T, Y32H, D57N, R58E, Y59V, V103I, L104R, A106L, I107R, H108Y
VL: B1 VL with G30S, D52S, R53S, H92N, T93S
B24: 1251-B09 heavy chain paired with VL SEQ ID NO: 272 (antibody, V domains shown)
VH: B18 VH with S28N, G30S, S31D, V51T, K57R, T58E, I59Y, R104H, V107L, L110N
VL: B1 VL with G30S, D52S, R53S, H92N, T93S
B25: 1251-D02 heavy chain paired with VL SEQ ID NO: 272 (antibody, V domains shown)
VH: B1 VH with D28S, S30A, Y32H
VL: B1 VL with G30S, D52S, R53S, H92N, T93S
B26: 1251-G02 heavy chain paired with VL SEQ ID NO: 272 (antibody, V domains shown)
VH: B1 VH with D28T, D53H, D57K, R58D, T101Q, R102L, V103D, L104H, H108Y, T110L
VL: B1 VL with G30S, D52S, R53S, H92N, T93S

What follows are binders tested against T1, hu-CD74 antigen (R&D SYSTEMS catalog …) (assay: SPR (Biacore T200), captured on anti-human Fc, rhCD74 analyte).

Kd [nM] | koff [s⁻¹] | kon [M⁻¹ s⁻¹] | Binder
0.135 | 0.000134 | 994000 | B1
0.184 | 0.000144 | 785000 | B2
0.158 | 0.000123 | 775000 | B3
0.179 | 0.000156 | 869000 | B4
0.178 | 0.000134 | 749000 | B5
0.18 | 0.000141 | 785000 | B6
0.172 | 0.000161 | 935000 | B7

Biological target: T1, hu-CD74 antigen (R&D SYSTEMS catalog …)
Experiment: as above
Remark: another data set of the same source

Kd [nM] | koff [s⁻¹] | kon [M⁻¹ s⁻¹] | Binder
0.668 | 0.000651 | 975000 | B8
78.2 | 0.00908 | 116000 | B9

Biological target: T1, hu-CD74 antigen (R&D SYSTEMS catalog …)
Experiment: as above
Remark: another data set of the same source
Method: Kinetic binding experiments were performed at 25° C. using 1×HBS-EP+buffer. Kinetic data was collected by injecting test and control antibodies at concentrations of 10, 5 and 2.5 μg/mL for 12 s at a flow rate of 10 μl/min on flow cells 2, 3 and 4 respectively, followed by a buffer wash for 30 s at the same flow rate. Kinetic characterization of antibody samples was carried out with 8 concentrations of a 1:2 dilution series of rhCD74 antigen (R&D Systems) and 2 injections of 0 nM antigen (buffer only). […] Between each ligand capture and analyte binding cycle, regeneration was carried out using 2 injections of 3M MgCl₂ for 30 seconds at 30 μL/min, followed by a 30 second buffer wash step.

Kd [nM] | koff [s⁻¹] | kon [M⁻¹ s⁻¹] | Binder
0.528 | 0.000297 | 563000 | B10
0.26 | 0.000234 | 901000 | B11
1.63 | 0.00118 | 722000 | B12
0.363 | 0.000779 | 2.15e+06 | B13
0.376 | 0.000426 | 1.13e+06 | B14
0.184 | 0.000305 | 1.65e+06 | B15
0.2 | 0.000302 | 1.51e+06 | B16
0.114 | 9.99e-05 | 873000 | B17
0.0752 | 0.000173 | 2.3e+06 | B18
0.721 | 0.000475 | 659000 | B19
0.139 | 0.000137 | 989000 | B20
0.224 | 0.000106 | 475000 | B21
0.559 | 0.000235 | 420000 | B22
0.185 | 0.000125 | 678000 | B23
0.225 | 0.000218 | 968000 | B24
0.189 | 0.000167 | 885000 | B25
0.651 | 0.00084 | 1.29e+06 | B26
